Measured values published in paper PMC2789664.

Columns and labels:
GAPDH C149A = GAPDH C149A (Homo sapiens, UniProt P04406 1-335, C152A); test: EMSA
GAPDH D32A = GAPDH D32A (Homo sapiens, UniProt P04406 1-335, D35A); test: EMSA
GAPDH D32A, sequence (P04406 whole entry D35A): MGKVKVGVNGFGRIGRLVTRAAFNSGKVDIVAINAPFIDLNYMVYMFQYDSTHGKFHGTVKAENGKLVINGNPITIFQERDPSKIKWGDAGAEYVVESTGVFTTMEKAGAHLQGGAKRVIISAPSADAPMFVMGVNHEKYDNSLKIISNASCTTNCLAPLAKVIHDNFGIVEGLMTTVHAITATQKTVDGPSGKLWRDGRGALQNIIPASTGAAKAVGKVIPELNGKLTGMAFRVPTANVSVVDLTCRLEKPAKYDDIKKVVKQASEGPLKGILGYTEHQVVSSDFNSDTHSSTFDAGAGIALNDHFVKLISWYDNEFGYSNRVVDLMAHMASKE

GAPDH C149A, sequence (P04406 whole entry C152A): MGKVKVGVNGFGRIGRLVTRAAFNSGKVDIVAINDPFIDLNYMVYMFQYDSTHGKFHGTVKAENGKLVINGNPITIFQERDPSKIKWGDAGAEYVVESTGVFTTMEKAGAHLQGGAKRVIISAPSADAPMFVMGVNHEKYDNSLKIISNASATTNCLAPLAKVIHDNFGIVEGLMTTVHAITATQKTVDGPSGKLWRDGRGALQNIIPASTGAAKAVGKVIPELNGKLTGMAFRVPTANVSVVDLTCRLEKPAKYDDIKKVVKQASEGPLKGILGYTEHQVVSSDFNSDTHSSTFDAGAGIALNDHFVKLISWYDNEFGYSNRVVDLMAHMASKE

## AGGGTTAGGGTTAGGGTT (ssDNA) [ss-(AGGGTT)3]
GAPDH C149A
  binding result: no binding
GAPDH D32A
  binding result: no binding
